From PMC4701952 come the findings set out here.

This test deals with T1, SEP3 full length wild type (A. thaliana), O22456.
T1 chain: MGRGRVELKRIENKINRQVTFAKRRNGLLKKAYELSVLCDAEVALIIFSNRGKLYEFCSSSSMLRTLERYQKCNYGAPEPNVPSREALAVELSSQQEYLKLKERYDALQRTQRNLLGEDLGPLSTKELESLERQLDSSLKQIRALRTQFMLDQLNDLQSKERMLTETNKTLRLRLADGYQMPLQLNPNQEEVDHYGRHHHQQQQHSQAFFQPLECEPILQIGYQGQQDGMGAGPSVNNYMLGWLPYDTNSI
Kind of test: native gel or EMSA; in vitro translated proteins (not purified) with Cy5 labelled SOC1 promoter DNA in which CArG box 1 or CArG box 2 is mutated (one site left). The conditions noted are these: remark: other sources report otherwise.

B1: SEP3 full length wild type, O22456 1-251 (natural protein)
chain: MGRGRVELKRIENKINRQVTFAKRRNGLLKKAYELSVLCDAEVALIIFSNRGKLYEFCSSSSMLRTLERYQKCNYGAPEPNVPSREALAVELSSQQEYLKLKERYDALQRTQRNLLGEDLGPLSTKELESLERQLDSSLKQIRALRTQFMLDQLNDLQSKERMLTETNKTLRLRLADGYQMPLQLNPNQEEVDHYGRHHHQQQQHSQAFFQPLECEPILQIGYQGQQDGMGAGPSVNNYMLGWLPYDTNSI
A word on the stoichiometry N: it is a count of units in the complex or per binding partner. In the case of B1, the stoichiometry N came to 4.
